Tests used:
rabbit erythrocytes = assay: Hemagglutination assay on trypsin-treated, glutaraldehyde fixed rabbit erythrocytes; assay type: cell-based; settings: for stability of agglutination activity upon storage: even in the presence of reducing agents
Description: Trypsin-treated, glutaraldehyde fixed rabbit erythrocytes were prepared and tested in an agglutination assay according to the method of Nowak et al. (Nowak et al. (1976) supra). Agglutination assays were performed in 96-well V-shaped microtiter plates with serial 2-fold dilutions of samples in 25 μl of DES (0.15 M NaCl, 2 mM EDTA, 2 mM dithiothreitol), 50 μl of 0.5% (w/v) BSA in 0.15 M NaCl and 25 μl of a 4% suspension of rabbit erythrocytes. The plates were shaken vigorously for 30 s, and agglutination was read after the plates had stood at room temperature for 1 h. Agglutinated erythrocytes formed a “mat” on the bottom of the well. For assessment of the inhibitory effects of saccharides, lactose, galactose, and N-acetyl-glucosamine were serially diluted in 25 μl of 0.15 M NaCl prior to the addition of recombinant protein in DES, 25 μl of 1% (w/v) BSA in 0.15 M NaCl, and 4% erythrocytes in PBS. The minimum concentration of GST-galectin-14 that gave mat formation (0.28 μM) was used in the saccharide inhibition assay. For assessment of the effects of antibody on GST-galectin-14 hemagglutination, ascites and supernatants from monoclonal antibodies and polyclonal rabbit sera all raised to recombinant galectin-14 were serially diluted in 25 μl of 0.15 M NaCl prior to the addition of recombinant protein in DES, 25 μl of 1% (w/v) BSA in 0.15 M NaCl, and 4% erythrocytes in PBS. A different batch of GST-galectin-14, which produced mat formation at a minimum concentration of 0.059 μM, was used at 0.059 μM and 0.042 μM to measure both inhibition and potentiation of agglutination by antibodies.

[1] = biological target: T1, laminin from Engelbreth-Holm-Swarm murine sarcoma (Mus musculus, UniProt P02468+P02469+P19137); assay: Solid-phase laminin binding assay; settings: serial dilutions; detected with anti-GST HRP antibody, absorbance 450 nm
T1 construct: laminin from Engelbreth-Holm-Swarm murine sarcoma (Sigma); purchased Sigma; host or cells: Engelbreth-Holm-Swarm murine sarcoma (tissue-derived)
Description: FIG. 17 is an image of the saturation binding of GST-galectin-14 fusion protein to immobilised laminin. Laminin binding of GST-galectin-14 fusion protein was assayed using a solid-phase binding assay in a 96-well microtitre plate. Serial dilutions of GST-galectin-14 (▪) and GST (▴) were added to microtitre wells containing laminin. 0.3 M Lactose was added to GST-galectin-14 to inhibit binding (◯). The level of bound protein was monitored by the binding of rabbit anti-GST HRP antibody developed with TMB substrate and detected by a change in absorbance at 450 nm.
Laminin binding activity was measured according to the method of Mazurek et al. with some modification. Briefly, the wells of a 96-well microtitre plate were coated with laminin from Engelbreth-Holm-Swarm murine sarcoma (Sigma) at 1 μg/100 μl of carbonate coating buffer (15 mM Na2CO3, 35 mM NaHCO3, pH 9.6) per well overnight at 4° C. Non-specific binding sites were blocked with 200 μl of 0.5% Tween 20 in PBS for 1 h. Plates were washed 3 times in 0.05% Tween 20 PBS and incubated with 50 μl serial dilutions of GST-galectin-14 or GST alone, diluted in 0.5% Tween 20 PBS, for 1.5 h at 37° C. Control wells contained 0.3 M lactose. […] The reaction was terminated with 100 μl 2 M sulphuric acid and the colour change monitored using a dual wavelength mode plate reader (Bio-tek instruments) at 450 nm, ref 690 nm.

[2] = SDS-PAGE and Western blot analysis of recombinant galectin-14 after storage; assay type: physicochemical; settings: storage at high concentrations; reducing conditions
Description: FIG. 10 is an image of SDS-PAGE and Western blot analysis of recombinant galectin-14 and endogenous proteins. […] The arrow points to the position of monomeric galectin-14. All samples were run under reducing conditions. […] Membranes were incubated with mAb supernatant for 2 h at room temperature, followed by incubation with secondary antibody, horseradish peroxidase-conjugated rabbit anti-mouse Ig (Dako, Carpinteria, Calif.), for at least 1 h at room temperature. Signals were detected using 1.5 mM 3,3′-diaminobenzidine tetrahydrochloride (DAB; Sigma), or ECL (Amersham Pharmacia Biotech).

B1: GST-galectin-14: Recombinant galectin-14 expressed in E. coli BL-21 as a GST fusion protein (pGEX-6P-2) (protein)
chain: MQSESGHEGDEELAFRDTQPPYINLPIPFTGRIEGGLQDGHKVTVMGRVLSTDENRFQVDFQMGISDTNNVAFHFNPRFEGSGYVVCNTMQLGNWGPEEKKMQMPFQKGSLFEICFKVDSSSFKVTVNGSIFLDYAHRLPFEQVNAISIGGCVHVSYISFQI
modifications: left off: a dimerising Fc or GST
Rabbit erythrocytes; batch used in the antibody potentiation assay
  maximum concentration which did not induce agglutination: 0.042 µM
Rabbit erythrocytes; batch used in the saccharide inhibition assay
  minimum concentration that gave mat formation (agglutination): 0.28 µM
Rabbit erythrocytes; different batch, used in the antibody assays
  minimum concentration that produced mat formation (agglutination): 0.059 µM
Rabbit erythrocytes
  stability of agglutination activity upon storage: did not deteriorate upon storage
[1]
  binding to immobilised laminin: bound to laminin in a dose dependent manner

B2: galectin-14: Ovine proto-type galectin, amino acid sequence <400>2; recombinant form cleaved from GST fusion, with 5 additional N-terminal amino acids (protein)
chain: MQSESGHEGDEELAFRDTQPPYINLPIPFTGRIEGGLQDGHKVTVMGRVLSTDENRFQVDFQMGISDTNNVAFHFNPRFEGSGYVVCNTMQLGNWGPEEKKMQMPFQKGSLFEICFKVDSSSFKVTVNGSIFLDYAHRLPFEQVNAISIGGCVHVSYISFQI
Rabbit erythrocytes; fresh cleaved and purified recombinant protein
  minimum concentration exhibiting agglutination activity on rabbit erythrocytes: 0.16 µM
Rabbit erythrocytes
  stability of agglutination activity upon storage: rapidly lost upon storage
[2]
  self-aggregation after storage: often self-aggregates into oligomers

Source: patent publication US20060057665A1, “Galectin-14 therapeutic molecule and uses thereof” (The University of Melbourne, priority 2001, published 2006)
